This note sets out measurements from publication PMC13082707, “Role of the C-terminal modules of Klebsiella phage KP32 receptor-binding protein gp38 in protein and phage functionality” (PLOS Pathogens, 2026).

In series [1] the target is KP32gp38_LEC (Klebsiella phage KP32). Description: SEC-MALS; SEC-MALLS of selected KP32gp38 variants to assess the molecular weight of their oligomeric state, buffer and concentrations not told. (In general: In gel filtration, larger molecules generally elute earlier.)
Series [2] has as its target KP32gp38_LIN-CBM-LEC (Klebsiella phage KP32). The series is described as above.
In series [3] the target is GFP_KP32gp38_LIN-CBM-LEC (Klebsiella phage KP32). The description is as above.
Series [4] has as its target KP32gp38_ΔCBM (Klebsiella phage KP32). The series is described as above.
Series [5] deals with KP32gp38_ΔLEC (Klebsiella phage KP32).
Series [6] has the same target. Description: SEC-MALS; SEC-MALLS of selected KP32gp38 variants to assess the molecular weight of their oligomeric state, buffer and concentrations not told.
The target in series [7] is KP32gp38_CP-E_K11gp0043_LIN-CBM-LEC (Klebsiella phage KP32 | Klebsiella phage K11). The series is described as above.
The target in series [8] is KP32gp38_CP-E-LIN_K11gp0043_CBM-LEC (Klebsiella phage KP32 | Klebsiella phage K11). The description is as above.
Series [9] has as its target KP32gp38_Δ(LIN-CBM) (Klebsiella phage KP32). The description is as above.
Series [10] concerns the molecule itself. The series is described as above.

As a reminder, the stoichiometry N is a count of units in the complex or per binding partner.

For the molecule KP32gp38_LEC (domain or fragment), in [1], the stoichiometry N is above 25. “KP32gp38_LIN-CBM-LEC (domain or fragment)”: the stoichiometry N in series [2] amounted to 3. As to “GFP_KP32gp38_LIN-CBM-LEC (domain or fragment)”, in series [3], the stoichiometry N came to 3. In turn, KP32gp38_ΔCBM (domain or fragment) came in with a stoichiometry N in series [4] of 3. Take KP32gp38_ΔLEC (domain or fragment): the enzymatic activity (halo formation on K21/KL163 lawns) compared to the WT in series [5] was 1000 fold. Also, in series [6], the percent dimers stood at 10% and the stoichiometry N came to 2. In series [7], KP32gp38_CP-E_K11gp0043_LIN-CBM-LEC displayed a stoichiometry N of 3. In series [8], KP32gp38_CP-E-LIN_K11gp0043_CBM-LEC gave a stoichiometry N of 3. As for “KP32gp38_Δ(LIN-CBM) (domain or fragment)”, in [9], the stoichiometry N worked out at 3.

B1: KP32gp38_WT, receptor-binding protein 2 (RBP2) of Klebsiella phage KP32 (natural protein, UniProt D1L2X1 1-576, looked up)
chain: MLDNFNQPKGSTIGVLKDGRTIQEAFDSLPRLESFSGSTATDKLRAAITLGVSEVAIGPVEGNGGRPYEFGDVVIPYPLRIVGCGSQGINVTKGTVLKRSAGASFMFHFTGEGQAQRPMGGGLFNINLNGDTATALGDIIKVTQWSYFKANNCAFQNMAGWGIRLKDVMESNISGNLFRRLGGPSGGGILFDDVRSAVTDNVNNLHIEDNTFALMSGPWIGSTANSNPDLIWIVRNKFEFDGTPAAPNTVDSYVLDFQQLSRAFIQDNGFTHFTTERNRYVGVLRVGATAVGTIKFEDNLLFACESAGLIAGGIVVSRGNVNNQGSATTAIKQFTNTSSKLCKLERVINVQSNGNVSVGQQILPDGYINMAELPGNTRLPSEYDADGETTSVLRVPANTQVRQWSVPKMYKDGLTVTKVTVRAKGAAAGAILSLQSGSTVLSTKSIDAGVWKNYVFYVKANQLQETLQLRNTGTADVLADGMVFGKVDYIDWDFAIAPGTLAAGAKYTTPNQSYLDVAGMRVQAVSIPMFDGPTTGLQVWVEATSANGSFVVVMKNDTGSELVTTVTRCRVRAFVS
notes: KP32gp38 (RBP2, capsule depolymerase/tailspike) of Klebsiella phage KP32; domains CP-E-LIN-CBM-LEC; Expressed from pVTD3 (C-terminal His-tag); also called KP32gp38 WT depolymerase; source: E. coli BL21(DE3), purified (His GraviTrap or HisPur Ni-NTA)
On to B1, for which the “stoichiometry N” value in series [10] worked out at 3.
